From PMC11761524 (bioRxiv, 2025)

B1: Cyclin F loop mutant: Flag-Cyclin F mutant containing D504-T511 all changed to alanine (protein)
chain: MGSGGVVHCRCAKCFCYPTKRRIRRRPRNLTILSLPEDVLFHILKWLSVEDILAVRAVHSQLKDLVDNHASVWACASFQELWPSPGNLKLFERAAEKGNFEAAVKLGIAYLYNEGLSVSDEARAEVNGLKASRFFSLAERLNVGAAPFIWLFIRPPWSVSGSCCKAVVHESLRAECQLQRTHKASILHCLGRVLSLFEDEEKQQQAHDLFEEAAHQGCLTSSYLLWESDRRTDVSDPGRCLHSFRKLRDYAAKGCWEAQLSLAKACANANQLGLEVRASSEIVCQLFQASQAVSKQQVFSVQKGLNDTMRYILIDWLVEVATMKDFTSLCLHLTVECVDRYLRRRLVPRYRLQLLGIACMVICTRFISKEILTIREAVWLTDNTYKYEDLVRMMGEIVSALEGKIRVPTVVDYKEVLLTLVPVELRTQHLCSFLCELSLLHTSLSAYAPARLAAAALLLARLTHGQTQPWTTQLWDLTGFSYEDLIPCVLSLHKKCFHDDAPKAAAAAAAAAVKQRFEDKRYGEISQEEVLSYSQLCAALGVTQDSPDPPTFLSTGEIHAFLSSPSGRRTKRKRENSLQEDRGSFVTTPTAELSSQEETLLGSFLDWSLDCCSGYEGDQESEGEKEGDVTAPSGILDVTVVYLNPEQHCCQESSDEEACPEDKGPQDPQALALDTQIPATPGPKPLVRTSREPGKDVTTSGYSSVSTASPTSSVDGGLGALPQPTSVLSLDSDSHTQPCHHQARKSCLQCRPPSPPESSVPQQQVKRINLCIHSEEEDMNLGLVRL
modifications: left off: Flag, end not stated, kept

How the values were obtained:
[1] = biological target: strep-Cyclin F (1–546)-GST-Skp1 (1–163) (human) (UniProt P41002); test: fluorescence polarisation
[2] = biological target: GST-Cyclin A (173–432) (UniProt P20248); test: fluorescence polarisation
[3] = test system: CP110; test: Coimmunoprecipitation of Flag-Cyclin F with endogenous CP110 in HEK293T cells; type: cell-based; conditions: anti-Flag IP, Western blot, vs WT Cyclin F
[4] = test system: CDC6; test: Coimmunoprecipitation of Flag-Cyclin F with endogenous CDC6 in HEK293T cells; type: cell-based; conditions: anti-Flag IP, Western blot, vs WT Cyclin F

UniProt P20248, sequence (P20248 173-432): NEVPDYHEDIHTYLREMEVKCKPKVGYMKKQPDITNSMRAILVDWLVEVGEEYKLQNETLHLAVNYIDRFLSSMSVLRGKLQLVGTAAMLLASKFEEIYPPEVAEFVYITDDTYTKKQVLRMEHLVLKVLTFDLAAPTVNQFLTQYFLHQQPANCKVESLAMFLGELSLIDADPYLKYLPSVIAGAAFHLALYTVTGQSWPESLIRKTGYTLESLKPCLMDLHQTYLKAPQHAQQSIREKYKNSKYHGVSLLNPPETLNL

Molecule | fold decrease in affinity against the wild-type E2F1 peptide [1] [fold] | fold decrease in affinity against the wild-type E2F1 peptide [2] [fold] | association with CP110 (coimmunoprecipitation) [3] | association with CDC6 (coimmunoprecipitation) [4]
E2F1 peptide R91E (unlabeled) (from UniProt Q01094 84-99) | 41 | 12 |  | 
E2F1 peptide V88E (unlabeled) (from UniProt Q01094 84-99) | 31 | 460 |  | 
E2F1 peptide D93R (unlabeled) (from UniProt Q01094 84-99) | 3 | 3 |  | 
E2F1 peptide K89E (unlabeled) (from UniProt Q01094 84-99) | 24 | 48 |  | 
B1 |  |  | weaker association was more apparent | weaker association was more apparent
